Reference: PMC3355487 (mAbs, 2012)
Read-outs that look alike come from different tables or passages of the source.

Experiments:
[1] = target: T1, hROR1-ECD (Homo sapiens, UniProt Q01973); assay: SPR
[2] = target: T2, Fc-hROR1 (Homo sapiens, UniProt Q01973); assay: SPR
[3] = target: Fc-hROR1Kr (Homo sapiens, UniProt Q01973); assay: ELISA
[4] = target: Fc-mROR1 (Mus musculus, UniProt Q9Z139); assay: ELISA
[5] = target: Fc-hROR1Fz+Kr (Homo sapiens, UniProt Q01973); assay: ELISA
[6] = target: Fc-hROR1Fz (Homo sapiens, UniProt Q01973); assay: ELISA
[7] = target: T1, hROR1-ECD; assay: SPR; remark: listed apart in the source
[8] = target: T2, Fc-hROR1; assay: SPR; remark: listed apart in the source

T1 sequence (Q01973 30-406): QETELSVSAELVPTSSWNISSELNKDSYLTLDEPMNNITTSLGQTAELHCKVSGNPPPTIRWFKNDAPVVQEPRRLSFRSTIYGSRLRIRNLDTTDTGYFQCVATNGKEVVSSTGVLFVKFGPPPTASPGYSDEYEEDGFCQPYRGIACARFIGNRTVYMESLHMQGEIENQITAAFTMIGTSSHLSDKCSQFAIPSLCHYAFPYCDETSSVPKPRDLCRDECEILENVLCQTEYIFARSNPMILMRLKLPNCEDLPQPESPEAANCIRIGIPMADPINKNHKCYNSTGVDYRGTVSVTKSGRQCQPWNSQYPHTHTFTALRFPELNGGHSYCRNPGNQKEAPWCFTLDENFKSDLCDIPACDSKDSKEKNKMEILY
T2 sequence (Q01973 30-406): as above
Chain of Fc-hROR1Fz (Q01973 165-299): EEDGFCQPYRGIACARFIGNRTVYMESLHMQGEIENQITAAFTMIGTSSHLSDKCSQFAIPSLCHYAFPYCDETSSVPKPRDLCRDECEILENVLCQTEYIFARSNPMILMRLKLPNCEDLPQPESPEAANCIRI
Chain of Fc-mROR1 (Q9Z139 30-406): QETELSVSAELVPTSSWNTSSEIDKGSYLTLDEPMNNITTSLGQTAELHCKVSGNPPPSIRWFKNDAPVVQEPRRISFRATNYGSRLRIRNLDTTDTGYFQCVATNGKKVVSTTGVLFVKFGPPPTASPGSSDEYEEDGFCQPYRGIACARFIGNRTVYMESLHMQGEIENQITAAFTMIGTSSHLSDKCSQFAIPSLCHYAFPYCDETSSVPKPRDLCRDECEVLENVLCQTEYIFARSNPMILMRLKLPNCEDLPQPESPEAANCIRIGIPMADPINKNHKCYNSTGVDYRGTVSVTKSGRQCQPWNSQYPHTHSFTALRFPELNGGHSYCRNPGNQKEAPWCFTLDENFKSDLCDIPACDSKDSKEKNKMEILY

B1: mouse anti-human ROR1 monoclonal antibody 2A2-IgG (antibody, V domains shown)
VH: QVQLQQSGAELVRPGASVTLSCKASGYTFSDYEMHWVIQTPVHGLEWIGAIDPETGGTAYNQKFKGKAILTADKSSSTAYMELRSLTSEDSAVYYCTGYYDYDSFTYWGQGTLVTVSA
VL: DIVMTQSQKIMSTTVGDRVSITCKASQNVDAAVAWYQQKPGQSPKLLIYSASNRYTGVPDRFTGSGSGTDFTLTISNMQSEDLADYFCQQYDIYPYTFGGGTKLEIK
Binder B1 has a Kd [1] of 0.12 nM, a koff [1] of 0.00018 s⁻¹ and a kon [1] of 1.52e+06 M⁻¹ s⁻¹. For the same binder, the Kd [2] was 0.42 nM, the koff [2] was 0.00034 s⁻¹ and the kon [2] was 810000 M⁻¹ s⁻¹. B1: no binding [3]; binds [4]; no binding [5]. The binding result [6] was “no binding”, the Kd [7] was 32.6 nM and the koff [7] was 0.00777 s⁻¹. The kon [7] was 240000 M⁻¹ s⁻¹, the Kd [8] was 0.79 nM and the koff [8] was 0.00018 s⁻¹. It also gave a kon [8] of 230000 M⁻¹ s⁻¹.
